Laboratory results published in the supplement of paper PMC10567573.

B1: ZBTB22 (parent)
chain: HTGLKPYECGVCAKKFMWRDSFMR

Variants of: B1
Test: protein stability index of a GFP-peptide fusion (GPS, HEK-293T) (PSI 1-6); higher = more stable
Conditions: c terminus: a fixed tail appended
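Also: lentivirally expressed fusions sorted by FACS into six bins by GFP to DsRed ratio, PSI derived from sequencing read proportions per bin multiplied by bin number.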

| Variant | protein stability index |
| --- | --- |
| HTGLKPYECGHCAKKFMWRDSFMR [V11H] | 2.37 |
| HTGLKPYECGKCAKKFMWRDSFMR [V11K] | 2.98 |
| HTGLKPYECGQCAKKFMWRDSFMR [V11Q] | 1.8 |
| HTGLKPYECGECAKKFMWRDSFMR [V11E] | 2.09 |
| HTGLKPYECGFCAKKFMWRDSFMR [V11F] | 2.4 |
| HTGLKPYECGRCAKKFMWRDSFMR [V11R] | 1.75 |
| HTGLKPYECGLCAKKFMWRDSFMR [V11L] | 1.85 |
| HTGLKPYECGYCAKKFMWRDSFMR [V11Y] | 2.59 |
| HTGLKPYECGICAKKFMWRDSFMR [V11I] | 3.5 |
| HTGLKPYECGGCAKKFMWRDSFMR [V11G] | 1.25 |
| HTGLKPYECGTCAKKFMWRDSFMR [V11T] | 1.83 |
| HTGLKPYECGNCAKKFMWRDSFMR [V11N] | 1.37 |
| HTGLKPYECGDCAKKFMWRDSFMR [V11D] | 3.26 |
| HTGLKPYECGPCAKKFMWRDSFMR [V11P] | 3.87 |
| HTGLKPYECGVCMKKFMWRDSFMR [A13M] | 3.7 |
| HTGLKPYECGVCEKKFMWRDSFMR [A13E] | 1.56 |
| HTGLKPYECGVCFKKFMWRDSFMR [A13F] | 3.02 |
| HTGLKPYECGVCIKKFMWRDSFMR [A13I] | 2.5 |
| HTGLKPYECGVCDKKFMWRDSFMR [A13D] | 1 |
| HTGLKPYECGVCQKKFMWRDSFMR [A13Q] | 1.55 |
| HTGLKPYECGVCKKKFMWRDSFMR [A13K] | 1.22 |
| HTGLKPYECGVCHKKFMWRDSFMR [A13H] | 2.56 |
| HTGLKPYECGVCGKKFMWRDSFMR [A13G] | 1.54 |
| HTGLKPYECGVCWKKFMWRDSFMR [A13W] | 3.78 |

| Variant | protein stability index |
| --- | --- |
| HTGLKPYECGVCLKKFMWRDSFMR [A13L] | 2.64 |
| HTGLKPYECGVDAKKFMWRDSFMR [C12D] | 1.12 |
| HTGLKPYECGVYAKKFMWRDSFMR [C12Y] | 2.91 |
| HTGLKPYECGVPAKKFMWRDSFMR [C12P] | 1.73 |
| HTGLKPYECGVSAKKFMWRDSFMR [C12S] | 2.56 |
| HTGLKPYECGVNAKKFMWRDSFMR [C12N] | 2.56 |
| HTGLKPYECGVKAKKFMWRDSFMR [C12K] | 2.58 |
| HTGLKPYECGVGAKKFMWRDSFMR [C12G] | 3.24 |
| HTGLKPYECGVWAKKFMWRDSFMR [C12W] | 3.06 |
| HTGLKPYECGVTAKKFMWRDSFMR [C12T] | 2.56 |
| HTGLKPYECGVAAKKFMWRDSFMR [C12A] | 1.62 |
| HTGLKPYECGVIAKKFMWRDSFMR [C12I] | 3.24 |
| HTGLKPYECGVEAKKFMWRDSFMR [C12E] | 3.07 |
| HTGLKPYECGVCAKKFMWRDFFMR [S21F] | 1.98 |
| HTGLKPYECGVCAKKFMWRDEFMR [S21E] | 1.78 |
| HTGLKPYECGVCAKKFMWRDAFMR [S21A] | 2.23 |
| HTGLKPYECGVCAKKFMWRDHFMR [S21H] | 2.26 |
| HTGLKPYECGVCAKKFMWRDGFMR [S21G] | 2.9 |
| HTGLKPYECGVCAKKFMSRDSFMR [W18S] | 1.52 |
| HTGLKPYECGVCAKKFMKRDSFMR [W18K] | 1.75 |
| HTGLKPYECGVCAKKFMPRDSFMR [W18P] | 2.88 |
| HTGLKPYECGVCAKKFMRRDSFMR [W18R] | 2.05 |
| HTGLKPYECGVCAKKFMERDSFMR [W18E] | 2.75 |
| HTGLKPYECGVCAKKFMCRDSFMR [W18C] | 1.85 |

| Variant | protein stability index |
| --- | --- |
| HTGLKPYECGVCAKKFMIRDSFMR [W18I] | 1.57 |
| HTGLKPYECGVCAKKFMHRDSFMR [W18H] | 2.81 |
| HTGLKPYECGVCAKKFMLRDSFMR [W18L] | 3.88 |
| HTGLKPYECGVCAKKFMTRDSFMR [W18T] | 1.68 |
| HTGLKPYECGVCAKKFMARDSFMR [W18A] | 1.06 |
| HTGLKPYECGVCAKKFMDRDSFMR [W18D] | 2.09 |
| HTGLKPYECGVCAKKFMYRDSFMR [W18Y] | 3 |
| HTGLKPYECGVCAKKFMVRDSFMR [W18V] | 2.43 |
| HTGLKPYECGVCAKKFMNRDSFMR [W18N] | 1.61 |
| HTGLKPYECGVCAKKFMMRDSFMR [W18M] | 1.78 |
| HTGLKPYEKGVCAKKFMWRDSFMR [C9K] | 2.22 |
| HTGLKPYEWGVCAKKFMWRDSFMR [C9W] | 2.35 |
| HTGLKPYEVGVCAKKFMWRDSFMR [C9V] | 2.02 |
| HTGLKPYEGGVCAKKFMWRDSFMR [C9G] | 2.23 |
| HTGLKPYEHGVCAKKFMWRDSFMR [C9H] | 1.48 |
| HTGLKPYELGVCAKKFMWRDSFMR [C9L] | 2.75 |
| HTGLKPYEQGVCAKKFMWRDSFMR [C9Q] | 1.65 |
| HTGLKPYEMGVCAKKFMWRDSFMR [C9M] | 2.58 |
| HTGLKPYESGVCAKKFMWRDSFMR [C9S] | 1.42 |
| HTGLKPYEAGVCAKKFMWRDSFMR [C9A] | 1.46 |
| HTGLKPYERGVCAKKFMWRDSFMR [C9R] | 1.8 |
| HTGLKPYEDGVCAKKFMWRDSFMR [C9D] | 1.85 |
| HTGLKPYEFGVCAKKFMWRDSFMR [C9F] | 3.19 |
| HTGLKPYEIGVCAKKFMWRDSFMR [C9I] | 1.98 |

| Variant | protein stability index |
| --- | --- |
| HTGLKPYETGVCAKKFMWRDSFMR [C9T] | 1.78 |
| HTGLKPYEEGVCAKKFMWRDSFMR [C9E] | 1.1 |
| HTGLKPYENGVCAKKFMWRDSFMR [C9N] | 2.26 |
| HTGLKPYEPGVCAKKFMWRDSFMR [C9P] | 2.65 |
| HTGLKPYECQVCAKKFMWRDSFMR [G10Q] | 2.19 |
| HTGLKPYECFVCAKKFMWRDSFMR [G10F] | 2.12 |
| HTGLKPYECNVCAKKFMWRDSFMR [G10N] | 2.62 |
| HTGLKPYECKVCAKKFMWRDSFMR [G10K] | 2.19 |
| HTGLKPYECEVCAKKFMWRDSFMR [G10E] | 2.44 |
| HTGLKPYECAVCAKKFMWRDSFMR [G10A] | 2.82 |
| HTGLKPYECRVCAKKFMWRDSFMR [G10R] | 2.01 |
| HTGLKPYECDVCAKKFMWRDSFMR [G10D] | 1.98 |
| HTGLKPYECSVCAKKFMWRDSFMR [G10S] | 1.47 |
| HTGLKPYECYVCAKKFMWRDSFMR [G10Y] | 3.51 |
| HTGLKPYECMVCAKKFMWRDSFMR [G10M] | 1.64 |
| HTGLKPYECPVCAKKFMWRDSFMR [G10P] | 1.92 |
| HTGLKPYECLVCAKKFMWRDSFMR [G10L] | 2.17 |
| HTGLKPYECVVCAKKFMWRDSFMR [G10V] | 4.2 |
| HTGLKPYECTVCAKKFMWRDSFMR [G10T] | 1.84 |
| HTGLKPYECHVCAKKFMWRDSFMR [G10H] | 1.96 |
| HTGLKPYECCVCAKKFMWRDSFMR [G10C] | 2.58 |
| HTGLKPYECGVCAKKFFWRDSFMR [M17F] | 3.05 |
